# Test results from the DeepSol protein solubility set.
# Assay: soluble on expression in E. coli; label from the status in PepcDB or PDB records
row,Sequence,soluble on expression in E. coli
1,MRITHLGHSCILVEAAGQRILVDPGNLSRSWRGLTDLDAILVTHRHPDHVDPEHIGALVDANSGAVVRAEEGACHEIPALDADPVAPGDVLQIGEVRIEAVGGRHAVIHRDLEPIGNVGYLIGEGLGTILYHPGDELDETPRGVDVLACPAHAPWAAMKETVDFARSVGARHGFLIHEGLLNGRGWQLSFDRHQEMVPTTFHDLRNGQPWEVPQDLEHHHHHH,not soluble
2,MRITLVTDSTSDLPQDLRGRLGVRVVPLYVNLSGAIYRDWEEITPTEIFQKVREGAAFPTTSQPSPEDFARVYREALEEADHVLSLHISGKLSGTVQSAELAAQEFPGRVTVVDTQAASLGVGMMVLRAKELLEEGQSLEAVLAELERLRRDHFVRFSVATLEFLKRGGRIGGAQAFLGTLLNLKPVLTLKEGRVEAAGRARGEKKAREEILKAFRAWAEGRKRIRAYFLYSGDEDAVAALRQEVLASGLPVEEALVNELGAVIASHTGPGTYGFYAYSL,soluble
3,MRIYLIGFMCSGKSTVGSLLSRSLNIPFYDVDEEVQKREGLSIPQIFEKKGEAYFRKLEFEVLKDLSEKENVVISTGGGLGANEEALNFMKSRGTTVFIDIPFEVFLERCKDSKERPLLKRPLDEIKNLFEERRKIYSKADIKVKGEKPPEEVVKEILLSLEGNALGG,soluble
4,MRKLMTATAALCACAVTVSAGAAWADADVQPAGSVPIPDGPAQTWIVADLDSGQVLAGRDQNVAHPPASTIKVLLALVALDELDLNSTVVADVADTQAECNCVGVKPGRSYTARQLLDGLLLVSGNDAANTLAHMLGGQDVTVAKMNAKAATLGATSTHATTPSGLDGPGGSGASTAHDLVVIFRAAMANPVFAQITAEPSAMFPSDNGEQLIVNQDELLQRYPGAIGGKTGYTNAARKTFVGAAARGGRRLVIAMMYGLVKEGGPTYWDQAATLFDWGFALNPQASVGSL,soluble
5,MRKPTDTLPVNLQRRRLLCAAGALLLSPLAHAGAQREETLADDVASVMRSSVGSVNPPRLVFDNPKEGERWLSAMSARLARFVPEEEERRRLLVNIQYESSRAGLDTQIVLGLIEVESAFRQYAISGVGARGLMQVMPFWKNYIGKPAHNLFDIRTNLRYGCTILRHYRNLEKGNIVRALARFNGSLGSNKYPNAVLGAWRNRWQWR,not soluble
6,MRKSLVALLLLAASGLAQAQVDLREGHPDRYTVVRGDTLWDISGKFLRQPWKWPELWHANPQIQNPHLIYPGDTLSLVYVDGQPRLVLNRGESRGTIKLSPKIRSTPIAEAIPTIPLDKINSFLLANRIVDDEKTFTSAPYIVAGNAERIVSGTGDRIYARGKFADGQPAYGIFRQGKVYIDPKTKEVLGINADDIGGGEVVATEGDVATLALTRTTQEVRLGDRLFPTEERAVNSTFMPGEPSREVKGEIIDVPRGVTQIGQFDVVTLNRGQRDGLAEGNVLAIYKVGETVRDRVTGESVKIPDERAGLLMVFRTYKKLSYALVLMASRPLSVTDRVQNP,not soluble
7,MRKSMISFLEKKAKNEKITMVSAYDYHSARILDNSDIDIILVGDSLAMTVLGMQDTLSVTMDEMLIFTKAVSRGAKKSFVLADMPFMSYQSSDRDAILNASRFIKESHANGVKVEGGIEIASKIKLISQSGIPVVAHLGLTPQAVNMLGGYRVQGKDLQSAQKIIDDAKAVQDAGACMLVLECVPVKLAQKISSILEIPTIGIGSGKYCDGQVLVYHDLLGLNKDFKAKFVKHFDKIDPQVGVEKYRDEVKSGIFPSQEHSFDYLDDELLDKLY,not soluble
8,MRKTLTALFIAAALPTFAMAAPAANDLPPPPMEGGHMMGQHGPRHGGPMKELDLTREQRQQMGKLMGEQMKARHEITQRYLAKLPAAEQKALKDELKASHEKTQKDIRALLTPEQQKKFDELQKKREQRKAEWAEFQQWKADKKSNLEHHHHHH,soluble
9,MRLIIVSGRSGSGKSTALNVLEDNGFYCIDNLPASLLPDLAQRALLHTELLQPQVAVSIDARNLPSQLQRFPELLQEVRDNHINCDVLYLDADDETLLKRFSETRRRHPLTTDTRSLAEAIGDESQLLGPIADLADLKLDTTSLNLYQLRDTIKLRLLNKPEPGTAFLVESFGFKRGMPVDADLVFDVRCLPNPYWKPELRDHSGLEPEVREYLAAQPDVEEMYQDIVGYLNKWLPRFAASNRSYVTVAIGCTGGHHRSVYLAERIGAALRDSLKNVQIRHRDLSS,not soluble
